Test results as given in publication PMC12723722, “Phosphorylation event changes the RNA binding mode of EZH2 disordered segment”.

How the values were obtained:
Thymosin beta 4 (Tβ4) = Thymosin beta 4 (Tβ4) (UniProt P62328 2-44, not fully specified); test: EMSA; EMSA: LightShift RNA EMSA kit protocol, 1-2 nM refolded RNA, 30 min room temperature, 4 or 6% native PAGE, 0.5x TBE; MST: Monolith NT.115, standard treated capillaries, 40% MST power; binding buffer, salt and pH not given in the material; settings: protein: recombinant; label: 3' biotin (EMSA); Cy5 aminoallyl-UTP for labelled RNA; hairpin (predicted)
EZH2 loop WT = EZH2 loop WT (UniProt Q15910 340-435); test: EMSA; small but clear shift; EMSA: LightShift RNA EMSA kit protocol, 1-2 nM refolded RNA, 30 min room temperature, 4 or 6% native PAGE, 0.5x TBE; MST: Monolith NT.115, standard treated capillaries, 40% MST power; binding buffer, salt and pH not given in the material; settings: protein: recombinant; tags: His tag implied (pET22b, HisTrap); label: 3' biotin (EMSA); Cy5 aminoallyl-UTP for labelled RNA; hairpin (predicted)
Sequence of EZH2 loop WT (Q15910 340-435): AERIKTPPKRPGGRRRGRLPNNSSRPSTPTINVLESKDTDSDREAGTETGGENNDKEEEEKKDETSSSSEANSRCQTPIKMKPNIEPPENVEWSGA

Sequence of Thymosin beta 4 (Tβ4) (P62328 2-44): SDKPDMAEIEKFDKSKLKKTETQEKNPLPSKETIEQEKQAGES

AAGAAUGGCCUCGCGGAGGCAUGCGUCAUGCUAGCGUGCGGGGUACUCUU (structured_RNA) [R50]
binding result (Thymosin beta 4 (Tβ4)): no binding
binding result (EZH2 loop WT): binds
